Measured values from the Immune Epitope Database (IEDB).

target: HLA-A*02:01; test: IEDB peptide-MHC binding, purified MHC/competitive/radioactivity; ≥ and ≤ were set here for values at or beyond the usual limits of such assays; conditions: source organism: Homo sapiens

Work on TLGTVILLV yielded an IC50 of 60 nM.

same assay, conditions: source organism: Human gammaherpesvirus 8

Point of comparison: FLYVVCSLA, IC50 4 nM. Against it:
- HLDFWHHEV — 5-fold higher, 20 nM
- FIALNLSFI — 20-fold higher, 78 nM
- RLGAIPPLV — 83-fold higher, 333 nM
- RLYQASAVM — 69-fold higher, 277 nM
- ALIGTMCGI — 8.2-fold higher, 33 nM
- SVSDFDLRI — 100-fold higher, 416 nM
- FVAVHPVDV — 4.8-fold higher, 19 nM
- ITATFTAPL — 9.5-fold higher, 38 nM
- LLGTWMFSV — within 1.5-fold, 3 nM
- RLSNRICFWA — 96-fold higher, 384 nM
- QLASILGCVD — 78-fold higher, 312 nM
- SLVTGFINFI — 60-fold higher, 238 nM
- ATLGTVILL — 44-fold higher, 178 nM
- GALLPGNLV — 120-fold higher, 500 nM
- ALIGTMCGIL — 100-fold higher, 416 nM
- RIFYNILEI — 16-fold higher, 62 nM
- FKNSSNLFT — 16-fold higher, 64 nM
- SVDFYQFRV — 78-fold higher, 312 nM
- KLLGTWMFSV — within 1.5-fold, 3 nM
